Where “and” joins values, the source holds several entries; their conditions need not be identical. Equal values may be shown once. Square brackets hold non-standard residues; d marks the D form. Ends that are not written are not given here. Peptide text beside a SMILES is read from it.
Experiments:
α-syn monomers = target: T1, α-syn monomers (Homo sapiens, UniProt P37840); experiment: Fluorescence anisotropy affinity study; assay type: binding; settings: FIG. 5B, read-out: affinity constant (Kd) towards α-syn monomers
T1 construct: made in house; host or cells: E. coli BL21, pT7-7 vector
Procedure: Fluorescence Anisotropy Studies: β-syn 36 in which tyrosine was substituted with tryptophan (SEQ ID NO: 22—[…]) was dissolved to a concentration of 54 μM. The solution was immediately mixed with α-syn monomer stock solution to varying final concentrations. The peptide polarization measurements were carried out using an ISS K2 fluorometer. The solutions were excited at 280 nm and emission was monitored at 350 nm. For each single point, at least five measurements were collected and their average values were used for the calculation. All experiments were performed using ultra pure water.
To determine the affinity of the interaction between β-syn 36 and α-syn monomers, a peptide containing tryptophan instead of tyrosine at position 39 within β-syn was used, exploiting its intrinsic fluorescence in a fluorescence anisotropy assay. […] Increasing amount of α-syn monomers were titrated into a solution of β-syn 36 peptide and anisotropy was determined (FIG. 5B). The affinity constant was calculated as ˜1 μM.

[1] = In vitro peptide stability in mouse brain homogenate; assay type: in vitro ADME; settings: fresh mouse brain homogenate, 2 hours, 37° C., HPLC, FIGS. 6A-C
Procedure: In Vitro Assay of Peptide Stability: Peptides were dissolved to form a 1 mM solution in 50 μM Tris buffer (PH=7.6). 120 μl of the peptide solution was diluted into a 10% freshly-taken mouse brain homogenate without the cerebellum (in 1×Tris buffer and 0.5% Triton X-100). A mixture containing 20% peptide solution and 80% mouse brain homogenate was incubated at 37° C. with delicate shaking for 2 hours. The enzyme reaction was stopped by the addition of 0.1 M HCL solution, followed by denaturation of the protein using CH3OH and incubation at 20° C. for 1 hour. The precipitated proteins were centrifuged at 29,000×g for 20 minutes at 4° C. and the supernatant containing the peptide was concentrated under vacuum and separated using a C18 HPLC column. The area of the peak (UV absorbance at 280 nm) corresponding to the intact peptide was compared with an equivalent sample incubated in 50 μM Tris buffer.
Later, the stability of peptide β-syn 36 and the modified retro-inverso peptide was compared using fresh mouse brain homogenate to model serum degradation for a period of 2 hours.

[2] = tested on: flies expressing A53T α-syn in their nervous system; assay type: in vivo, Drosophila
Procedure: Fly Keeping: Flies were reared on standard corneal-molasses medium and were kept at 25° C. Male flies were crossed with virgin females collected no longer than 8 hours or 18 hours after eclosion at 25° C. or 18° C. respectively. Adult offspring (F1) from the crosses were collected up to 9 days after the beginning of their eclosion at 25° C. in order to avoid offspring from the next generation (F2).
Fly Crossing: Male flies carrying the driver elav-Ga14 on their X chromosome were crossed with females carrying the A53T α-syn transgene located on their X chromosome under the UAS promoter. […] Offspring of male flies carrying the driver elav-Ga14 crossed with WT OR females served as control.
Special Fly Feeding: β-syn retro-inverso peptide was added to standard corneal-molasses medium at a concentration of 0.75 mg/ml. The peptide was mixed thoroughly into the medium at 40° C. and the mixture was aliquot into rearing vials. The vials were kept at 4° C. until use. Crosses were performed either on regular Drosophila medium (control) or on medium supplemented with the peptide. Animals were fed on the appropriate medium from the beginning of the larval stage. After eclosion, offspring were transferred into a new vial that was pre-dripped with 0.75 mg/ml peptide solution every second day.
Locomotive (Climbing) Assay: Test tubes, each containing 10 flies, were tapped gently on the table and were let stand for 20 seconds. The percent of flies which climbed about one centimeter from the bottom of the test tube was then calculated over time. Each class had five independent test tube repeats.
In order to assess the effect of the peptide on α-syn in the living organism, a Drosophila model of PD was used. The transgenic flies over express the mutated […] α-syn in their nervous system, via the Gal4-UAS system. A common behavioral phenotype of these flies is defective locomotion; while normal flies tend to climb up along the tube, these flies remain at the bottom (Ueda et al., (1993) Proc Natl Acad Sci USA 90(23), 11282-11286). […] This cross was performed either on regular Drosophila medium or on medium supplemented with 0.75 mg/mL β-syn 36 retro-inverso peptide.

α-syn [3] = target: T2, α-syn (Homo sapiens, UniProt P37840); experiment: ThT fluorescence assay of α-syn fibril formation; assay type: biochemical; settings: for inhibition of fibril formation: as summarised in Example 4; for dose-dependent inhibition of α-syn aggregation: FIG. 3C
T2 construct: made in house; host or cells: E. coli BL21, pT7-7 vector
Procedure: ThT Florescence Assay: α-syn was dissolved to a concentration of 200 μM in 100 mM Tris buffer (pH 7.4). In order to obtain the monomeric fraction, the protein was filtered through a 100 kDa centricon. Since α-syn is not a globular protein but a natively unfolded one, only monomers and some dimers pass through the filter. […] The samples were incubated at 37° C. with agitation of 850 RPM as described by Tsigelny et al. (Tsigelny et al., 2007 Febs J 274(7), 1862-1877) and the fibrillogenesis rate was followed by thioflavin T (ThT) fluorescence assay (excitation at 450 nm, 2.5 nm slit, and emission at 480 nm, 5 nm slit), after three days of incubation. ThT was added to a 500-fold diluted sample and measured using a Jobin Yvon Horiba Fluoromax 3 fluorimeter.
In order to examine the inhibitory effect of the peptides on α-syn fibril formation, the Thioflavin-T (ThT) binding assay was used. This method provides quantitative information on amyloid fibril growth. α-syn was incubated for several days at 37° C. with vigorous shaking to allow the formation of amyloid fibrils with or without the different β-syn-derived peptides. The fibrillization process was monitored for three days.

α-syn [4] = target: T2, α-syn; experiment: Soluble oligomer formation, Western blot; assay type: biochemical; settings: soluble fraction, ~20-24 hours incubation, FIG. 4B
Procedure: Determination of Soluble Oligomer Formation: Monomeric α-syn was dissolved to a concentration of 200 μM in 100 mM Tris buffer (pH 7.4) and was immediately mixed with or without different β-syn derived peptides at a 1:1 ration to a final concentration of 100 μM, as was described above for the aggregation assay. […], 10 μl of the protein were centrifuged at 13000 RPM for 10 minutes, the supernatant was collected and electrophoresed in acrylamide gel using native loading buffer without β-mercaptoethanol and boiling. The gel was washed 3 times in ddH2O and samples were then transferred to the nitrocellulose membrane using semi-dry blot technique applying 323 mA current for 30 minutes. The membrane was blocked for 1 hour using 5% milk diluted in TBS (0.3% Tween) while shaking. Anti α-syn diluted 1:1000 (Santa Cruz Biotechnology) in 5% milk in TBS (0.3% tween) was added to the membrane for 2 hours incubation followed by several washes with TBS (0.3% Tween). Rabbit anti mouse IgG (Fc specific)-HRP conjugated antibody diluted 1:5000 in 5% milk diluted in TBS (0.3% Tween) was administrated for 1 hour at RT while shaking. Blots were developed after thorough TBS (0.3% Tween) washes using Enhanced Chemiluminescence System (ECL) according to the manufacturer's instructions.
To examine the ability of the peptides to inhibit the early stage of aggregation, soluble fractions of α-syn were collected after incubation with the β-syn peptides. The reaction mixtures were separated using SDS-PAGE followed by western blot analysis using a specific anti α-syn antibody (Santa-Cruz) (FIG. 4A).

α-syn [5] = target: T2, α-syn; experiment: Transmission electron microscopy of α-syn fibrils; assay type: biochemical; settings: samples from the ThT experiment; FIGS. 3D-K
Procedure: Transmission Electron Microscopy: Samples (10 μL) from the α-syn ThT fluorescence assay (with and without inhibitors) were placed on 400-mesh copper grids covered by carbon-stabilized Formvar film (SPI Supplies, West Chester, Pa.). After 1.5 minutes, excess fluid was removed, and the grids were negatively stained with 10 μl of 2% uranyl acetate solution for 2 minutes. Finally, excess fluid was removed and the samples were viewed in a JEOL 1200EX electron microscope operating at 80 kV.
Transmission electron microscopy (TEM) analysis was performed on samples of α-syn with and without the β-syn inhibitors.

## CC(C)C[C@H](NC(=O)[C@@H](NC(=O)CN)C(C)C)C(=O)N[C@@H](Cc1c[nH]c2ccccc12)C(=O)N[C@H](C(=O)NCC(=O)N[C@@H](CO)C(=O)N[C@@H](CCCCN)C(=O)N[C@H](C(=O)N[C@@H](CCCNC(=N)N)C(=O)O)[C@@H](C)O)C(C)C (H-GVLWVGSKTR-OH; N-terminus and C-terminus assumed)
α-syn monomers
  Kd: ~1000 nM and 1000 nM

## CC(C)C[C@@H](NC(=O)[C@@H](Cc1ccc(O)cc1)NC(=O)[C@H](NC(=O)CNC(=O)[C@@H](CO)NC(=O)[C@@H](CCCCN)NC(=O)[C@H](NC(=O)[C@H](N)CCCNC(=N)N)[C@H](C)O)C(C)C)C(=O)N[C@@H](C(=O)NCC(=O)O)C(C)C [β-syn 36 retro-inverso peptide] (H-[dR][dT][dK][dS]G[dV][dY][dL][dV]G-OH)
[1]
  stability in brain homogenate: elevation in stability
[1]; listed as retro-inverso analogue
  stability in brain homogenate: stable in human serum
[2]; A53T α-syn flies, day 27
  increase in climbing compared to untreated group: 30%
[2]; A53T α-syn flies, medium with 0.75 mg/mL peptide, day 27
  percent of flies climbing: 66%
[2]; control flies on medium with peptide
  effect on locomotion of control flies: no significant effect
[2]; medium with 0.75 mg/mL peptide
  phenotypic recovery of A53T α-syn flies: great phenotypic recovery

## AATGLVKREE [β-syn 78, decamer, aa 78-87 of β-syn]
α-syn [3]
  inhibition of fibril formation: not fibril formation
α-syn [4]
  inhibition of oligomer formation: inhibited oligomers

## GVLYVGSKTR [β-syn 36, decamer, aa 36-45 of β-syn, natural L-amino acids]
α-syn [3]; ThT, peptide excess 5:1 (molar ratio)
  dose-dependent inhibition of α-syn aggregation: less efficient
α-syn [3]; ThT, peptide excess 10:1 (molar ratio)
  dose-dependent inhibition of α-syn aggregation: still efficient
α-syn [3]; ThT, β-syn 36 compared with β-syn 39, FIG. 3B
  inhibition of α-syn aggregation, kinetic analysis: better inhibition
α-syn [3]
  inhibition of fibril formation: inhibited almost completely the formation of both aggregation types
α-syn [4]
  inhibition of oligomer formation: inhibited almost completely the formation of both aggregation types
α-syn [5]
  fibril formation by TEM: almost completely inhibited fibril formation

## SMAKEGV [β-syn 6short, seven amino acids peptide, aa 9-15 of β-syn, positive control selected by Windisch et al, reference compound]
α-syn [3]
  inhibition of fibril formation: inhibited the fibrils
α-syn [4]
  inhibition of oligomer formation: not the oligomers formation

## VLYVGSKTRE [β-syn 37, decamer, aa 37-46 of β-syn]
α-syn [3]
  inhibition of fibril formation: inhibited the fibrils
α-syn [4]
  inhibition of oligomer formation: not the oligomers formation

## YVGSKTR ([dY][dV]G[dS][dK][dT][dR]) [β-syn 36D short, β-syn 36D lacking amino acids G, V, L]
α-syn [3]; ThT, FIG. 7F
  inhibition effect on α-syn aggregation: no inhibition effect

— patent US9243032B2, “Compositions for treatment of neurodegenerative diseases” (Ramot at Tel-Aviv University Ltd., priority 2009, dated 2016)
